Test results from FireProtDB (doi:10.1021/bi9928694).

B1: Lysozyme C, P61626 (parent)
chain: MKALIVLGLVLLSVTVQGKVFERCELARTLKRLGMDGYRGISLANWMCLAKWESGYNTRATNYNAGDRSTDYGIFQINSRYWCNDGKTPGAVNACHLSCSALLQDNIADAVACAKRVVRDPQGIRAWVAWRNRCQNRDVRQYVQGCGV

Variants of: B1
Conditions: Homo sapiens, reversible: yes, structure 1LZ1, whole UniProt chain shown
[1] = pH 2.7, Thermal, DSC, glycine-HCl 0.05 M
[2] = pH 4, 10 °C, GdnHCl, CD, glycine-HCl 40 mM
[3] = pH 2.7, 64.9 °C, Thermal, DSC, glycine-HCl 0.05 M

What does the source list for MKALIVLGLVLLSVTVQGKVFERCELARTLKRLGMDGYRGISLANWMCLAKWESGYNTRATNYNAGDRSTDYGIFGINSRYWCNDGKTPGAVNACHLSCSALLQDNIADAVACAKRVVRDPQGIRAWVAWRNRCQNRDVRQYVQGCGV [Q76G]?
change of melting temperature, mutant - wild type (higher = more stable) [1]: 5.7 °C; heat capacity change of unfolding [1]: 1.34 kcal/mol/K; unfolding enthalpy (calorimetric) [1]: 109 kcal/mol; ddG of mutation (higher = less stable) [2]: -2.06 kcal/mol; denaturant midpoint (higher = more stable) [2]: 4.26 M; unfolding free energy [2]: 16.4 kcal/mol

Which results are given for MKALIVLGLVLLSVTVQGKVFERCELARTLKRLGMDGYRGISLANWMCLAKWESQYNTRATNYNAGDRSTDYGIFQINSRYWCNDGKTPGAVNACHLSCSALLQDNIADAVACAKRVVRDPQGIRAWVAWRNRCQNRDVRQYVQGCGV [G55Q]?
ddG of mutation (higher = less stable) [3]: 0.26 kcal/mol; heat capacity change of unfolding [3]: 1.15 kcal/mol/K; unfolding enthalpy (calorimetric) [3]: 108 kcal/mol; Tm [1]: 64.9 °C; heat capacity change of unfolding [1]: 1.15 kcal/mol/K; unfolding enthalpy (calorimetric) [1]: 108 kcal/mol; ddG of mutation (higher = less stable) [2]: 0.86 kcal/mol; denaturant midpoint (higher = more stable) [2]: 3.79 M; unfolding free energy [2]: 13.5 kcal/mol

Which “ddG of mutation (higher = less stable)” value [3] does the source give for MKALIVLGLVLLSVTVQGKVFERCELARTLKRLGMDGYRGISLANWMCLAKWESGYNTRATNYNAGDGSTDYGIFQINSRYWCNDGKTPGAVNACHLSCSALLQDNIADAVACAKRVVRDPQGIRAWVAWRNRCQNRDVRQYVQGCGV [R68G] here?
The value was -0.26 kcal/mol.

What about the “heat capacity change of unfolding” value [3] of the same variant?
Its value is 1.46 kcal/mol/K.

What about the “unfolding enthalpy (calorimetric)” value [3] of the same variant?
The value was 100 kcal/mol.

And the Tm [1]?
Its Tm is 65.8 °C.

And the “change of melting temperature, mutant - wild type (higher = more stable)” value [1]?
The value was 0.9 °C.

With MKALIVLGLVLLSVTVQGKVFERCELARTLKRLGMDGYRGISLANWMCLAKWESGYNTRATNYNAGDRSTDYGIFQINSRYWCNDGKTPGAVNACGLSCSALLQDNIADAVACAKRVVRDPQGIRAWVAWRNRCQNRDVRQYVQGCGV [H96G] as the variant, how does the “ddG of mutation (higher = less stable)” value [3] read?
The value was 0.12 kcal/mol.

And the “heat capacity change of unfolding” value [3]?
Its value is 1.58 kcal/mol/K.

And the “unfolding enthalpy (calorimetric)” value [3]?
The value was 109 kcal/mol.

And the Tm [1]?
The Tm was 64.9 °C.

And the “heat capacity change of unfolding” value [1]?
The value was 1.58 kcal/mol/K.

What about the “unfolding enthalpy (calorimetric)” value [1] of the same variant?
The value was 109 kcal/mol.

And the “ddG of mutation (higher = less stable)” value [2]?
Its value is 0.53 kcal/mol.

And the “denaturant midpoint (higher = more stable)” value [2]?
The value was 3.81 M.

What about the unfolding free energy [2] of the same variant?
The unfolding free energy was 13.8 kcal/mol.
